This data set has as its system Escherichia coli TOP10. The data set is described as follows: shrunken log2 fold change of peptide-encoding DNA abundance (4.5 h post-induction vs induction); higher = less antimicrobial activity (less host growth inhibition). Conditions: time post-induction: 4.5 h; library: site-saturation at positions 5, 18, 19, 20.
With RRIRHRPPRLPRPRPRPDGMPRP, the “shrunken log2 fold change” value was -0.444.

Consider RRIRMRPPRLPRPRPRPSFQPRP, for which the “shrunken log2 fold change” value is -0.283. The value for RRIRTRPPRLPRPRPRPSHWPRP was -0.148. RRIRTRPPRLPRPRPRPDNWPRP: the “shrunken log2 fold change” value was -0.244. RRIRDRPPRLPRPRPRPRRLPRP: the “shrunken log2 fold change” value came out at 0.472. With RRIRLRPPRLPRPRPRPYMDPRP, the “shrunken log2 fold change” value is -0.0681. To RRIRERPPRLPRPRPRPKRGPRP belongs 0.385; to RRIRKRPPRLPRPRPRPGNTPRP, -0.0331; to RRIRQRPPRLPRPRPRPWCWPRP, 0.304. Regarding RRIRYRPPRLPRPRPRPVDHPRP, the “shrunken log2 fold change” value was -0.328.

On to RRIRTRPPRLPRPRPRPCPYPRP, for which the “shrunken log2 fold change” value is -0.411. The value for RRIRARPPRLPRPRPRPVHGPRP was 0.785; that for RRIRWRPPRLPRPRPRPFADPRP was 0.737. With RRIRPRPPRLPRPRPRPICIPRP, the “shrunken log2 fold change” value was -0.158.

In the case of RRIRLRPPRLPRPRPRPEGSPRP, the “shrunken log2 fold change” value was -0.0436. The value for RRIRCRPPRLPRPRPRPLGVPRP was 0.0123; that for RRIRFRPPRLPRPRPRPHTNPRP was -0.453; that for RRIRVRPPRLPRPRPRPIHWPRP was -0.131. RRIRIRPPRLPRPRPRPGKKPRP: the “shrunken log2 fold change” value was 0.0847.

With RRIRCRPPRLPRPRPRPMIVPRP, the “shrunken log2 fold change” value is 0.0976. In the case of RRIRPRPPRLPRPRPRPAQKPRP, the “shrunken log2 fold change” value amounted to 0.273. The value for RRIRARPPRLPRPRPRPIAYPRP was 0.21; that for RRIRHRPPRLPRPRPRPYRFPRP was -0.269. To RRIRIRPPRLPRPRPRPAGFPRP belongs 0.0153; to RRIRHRPPRLPRPRPRPHPGPRP, -0.0998. The value for RRIRPRPPRLPRPRPRPLNQPRP was -0.217; that for RRIRERPPRLPRPRPRPVSDPRP was -0.26. For RRIRGRPPRLPRPRPRPCNCPRP, the “shrunken log2 fold change” value is 0.155. The value for RRIRVRPPRLPRPRPRPEEGPRP was -0.01; that for RRIRKRPPRLPRPRPRPSQEPRP was -0.0223. For the sequence RRIRERPPRLPRPRPRPVSQPRP, the “shrunken log2 fold change” value is -0.0404.

In the case of RRIRYRPPRLPRPRPRPMKIPRP, the “shrunken log2 fold change” value is -0.0574. For RRIRTRPPRLPRPRPRPCWKPRP, the “shrunken log2 fold change” value is -0.0202. As for RRIRHRPPRLPRPRPRPYDYPRP, the “shrunken log2 fold change” value is -0.276. In the case of RRIRDRPPRLPRPRPRPLNVPRP, the “shrunken log2 fold change” value is -0.029. The value for RRIRCRPPRLPRPRPRPPDDPRP was 0.523; that for RRIRHRPPRLPRPRPRPLSCPRP was -0.287; that for RRIRMRPPRLPRPRPRPMGSPRP was -0.0199. As for RRIRHRPPRLPRPRPRPFFIPRP, the “shrunken log2 fold change” value was -0.393. To RRIRYRPPRLPRPRPRPVAKPRP belongs -0.128; to RRIRQRPPRLPRPRPRPNFRPRP, -0.0457; to RRIRVRPPRLPRPRPRPKNNPRP, -0.406. For the sequence RRIRHRPPRLPRPRPRPFYVPRP, the “shrunken log2 fold change” value was 2.94. To RRIRWRPPRLPRPRPRPAQHPRP belongs 0.363. To RRIRYRPPRLPRPRPRPPHEPRP belongs -0.125.

As to RRIRARPPRLPRPRPRPWYCPRP, the “shrunken log2 fold change” value is -0.306.

With RRIRYRPPRLPRPRPRPGHIPRP, the “shrunken log2 fold change” value was found to be 0.0162. The value for RRIRGRPPRLPRPRPRPCRMPRP was 0.0426; that for RRIRVRPPRLPRPRPRPGWCPRP was 0.146. The value for RRIRHRPPRLPRPRPRPKRNPRP was 0.0354; that for RRIRCRPPRLPRPRPRPCFRPRP was -0.33; that for RRIRRRPPRLPRPRPRPQRDPRP was 0.179. As for RRIRYRPPRLPRPRPRPQSRPRP, the “shrunken log2 fold change” value was -0.17.

Consider RRIRSRPPRLPRPRPRPPTAPRP, for which the “shrunken log2 fold change” value came out at 0.447. The value for RRIRHRPPRLPRPRPRPLETPRP was -0.47. The value for RRIRIRPPRLPRPRPRPCCGPRP was -0.252; that for RRIRKRPPRLPRPRPRPMFRPRP was 0.0113. To RRIRRRPPRLPRPRPRPYFSPRP belongs -0.122; to RRIRSRPPRLPRPRPRPTWHPRP, 0.179. Take RRIRSRPPRLPRPRPRPDWDPRP: the “shrunken log2 fold change” value is 0.157.

As to RRIRMRPPRLPRPRPRPQLNPRP, the “shrunken log2 fold change” value came out at 0.158. The value for RRIRIRPPRLPRPRPRPLCGPRP was -0.319; that for RRIRHRPPRLPRPRPRPTAWPRP was 0.0946.

Consider RRIRFRPPRLPRPRPRPLAIPRP, for which the “shrunken log2 fold change” value is -0.0726. To RRIRNRPPRLPRPRPRPWEVPRP belongs 0.00408. The value for RRIRHRPPRLPRPRPRPDWFPRP was -0.00508; that for RRIRSRPPRLPRPRPRPDFTPRP was 0.0298. To RRIRQRPPRLPRPRPRPHFWPRP belongs -0.0983; to RRIRPRPPRLPRPRPRPFHWPRP, 0.0105.

For RRIRYRPPRLPRPRPRPEYIPRP, the “shrunken log2 fold change” value was -0.348. The value for RRIRNRPPRLPRPRPRPSESPRP was -0.0302. To RRIRYRPPRLPRPRPRPLMHPRP belongs -1.02; to RRIRQRPPRLPRPRPRPKKWPRP, -0.0403; to RRIRDRPPRLPRPRPRPSGPPRP, -0.0549. The value for RRIRKRPPRLPRPRPRPSFMPRP was 1.94; that for RRIRERPPRLPRPRPRPTHPPRP was 0.447; that for RRIRHRPPRLPRPRPRPCFRPRP was -0.346. Turning to RRIRRRPPRLPRPRPRPNCMPRP, the “shrunken log2 fold change” value was 0.0934. To RRIRQRPPRLPRPRPRPLTFPRP belongs -0.0576; to RRIRSRPPRLPRPRPRPEPWPRP, 0.548; to RRIRCRPPRLPRPRPRPSKKPRP, -0.0938. The value for RRIRIRPPRLPRPRPRPHAYPRP was -0.549; that for RRIRMRPPRLPRPRPRPKLLPRP was 0.0392; that for RRIRMRPPRLPRPRPRPNDTPRP was 0.11. For the sequence RRIRKRPPRLPRPRPRPAQAPRP, the “shrunken log2 fold change” value came to 0.281. The value for RRIRGRPPRLPRPRPRPFTCPRP was -0.22; that for RRIRSRPPRLPRPRPRPIVVPRP was 0.027; that for RRIRVRPPRLPRPRPRPVQKPRP was 0.0709. To RRIRQRPPRLPRPRPRPLLNPRP belongs -0.29.

RRIRMRPPRLPRPRPRPMEAPRP: the “shrunken log2 fold change” value was 0.0555.

As for RRIRFRPPRLPRPRPRPTWAPRP, the “shrunken log2 fold change” value was determined as 0.0327. The value for RRIRTRPPRLPRPRPRPSKVPRP was -0.0295. The value for RRIRDRPPRLPRPRPRPDKLPRP was -0.0536; that for RRIRIRPPRLPRPRPRPMGVPRP was -0.0148; that for RRIRLRPPRLPRPRPRPGFRPRP was 0.0673. The value for RRIRHRPPRLPRPRPRPCADPRP was -0.12. As for RRIRARPPRLPRPRPRPVRWPRP, the “shrunken log2 fold change” value was determined as 0.88. The value for RRIRCRPPRLPRPRPRPVWAPRP was 0.351; that for RRIRSRPPRLPRPRPRPIDQPRP was -0.174; that for RRIRGRPPRLPRPRPRPGQAPRP was 0.353. To RRIRIRPPRLPRPRPRPPDKPRP belongs -0.0243.

In the case of RRIRYRPPRLPRPRPRPCAEPRP, the “shrunken log2 fold change” value was -0.835.

Turning to RRIRCRPPRLPRPRPRPYCYPRP, the “shrunken log2 fold change” value was -0.669.

As to RRIRMRPPRLPRPRPRPMKLPRP, the “shrunken log2 fold change” value is -0.13. Take RRIRWRPPRLPRPRPRPDSRPRP: the “shrunken log2 fold change” value was -0.251. Consider RRIRSRPPRLPRPRPRPAIFPRP, for which the “shrunken log2 fold change” value stood at 0.0447.

Regarding RRIRARPPRLPRPRPRPCCKPRP, the “shrunken log2 fold change” value is -0.12. The value for RRIRQRPPRLPRPRPRPEKAPRP was -0.00536; that for RRIRDRPPRLPRPRPRPSVKPRP was -0.256; that for RRIRWRPPRLPRPRPRPKPCPRP was 0.229.

For RRIRKRPPRLPRPRPRPLPSPRP, the “shrunken log2 fold change” value worked out at 0.0447. For RRIRWRPPRLPRPRPRPWHRPRP, the “shrunken log2 fold change” value was -0.0473.

As for RRIRQRPPRLPRPRPRPWIPPRP, the “shrunken log2 fold change” value is 0.0265. To RRIRIRPPRLPRPRPRPFQHPRP belongs -0.214; to RRIRMRPPRLPRPRPRPEDAPRP, 3.45. The value for RRIRCRPPRLPRPRPRPPIGPRP was -0.079; that for RRIRVRPPRLPRPRPRPLFVPRP was -0.175; that for RRIRTRPPRLPRPRPRPVLGPRP was 0.304.

As to RRIRYRPPRLPRPRPRPGGHPRP, the “shrunken log2 fold change” value was -0.278. To RRIRARPPRLPRPRPRPTQIPRP belongs 0.553; to RRIRMRPPRLPRPRPRPEWWPRP, -0.00783. The value for RRIRERPPRLPRPRPRPPLKPRP was 0.322; that for RRIRFRPPRLPRPRPRPIGDPRP was -0.033; that for RRIRWRPPRLPRPRPRPEIKPRP was -0.0674.

For RRIRIRPPRLPRPRPRPGINPRP, the “shrunken log2 fold change” value is -0.603.

For the origin of these results see the supplement of paper PMC9112550, “Optimization of the antimicrobial peptide Bac7 by deep mutational scanning” (BMC Biology, 2022).
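Note: peptides expressed intracellularly from a pBAD plasmid library in pooled LB shake-flask culture, induced with 0.3% L-arabinose, DNA abundance read by NGS, three biological replicates, DESeq2 with apeglm shrinkage.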
